Measurements as given in patent publication US20240279328A1 (Johns Hopkins, published 2024).
Numbering of substitutions follows the chain as printed.

B1: F5111 antibody (wild type anti-hIL2 antibody, human IgG1, lambda light chain) (antibody)
heavy: not shown
light: GSNFMLTQPHSVSESPGKTVTISCTRSSGSIASNYVQWYQQRPGSSPTTVIYEDNQRPSGVPDRFSGSIDSSSNSASLTISGLKTEDEADYYCQSYDSSNVVFGGGTKLTVLGQPKAAPSVTLFPPSSEELQANKATLVCLISDFYPGAVTVAWKADSSPVKAGVETTTPSKQSNNKYAASSYLSLTPEQWKSHRSYSCQVTHEGSTVEKTVAPTECS
notes: Expressed in CHO cells, purified on protein G; also called F5111 WT; parent F5111 mAb
B2: F5111 M2 glycovariant (N-glycosylation site inserted in the heavy chain) (antibody, human IgG1, lambda, V domains shown)
VH: QLQLQESGPGLVKPSQTLSLTCTVSGGSISSGGYYWSWIRQHPGKGLEWIGYIYYSGSTYYNPSLKSRVTISVDTSKNQFSLKLSNVTAADTAVYYCARTPTVTGDWFDPWGRGTLVTVSS
VL: SNFMLTQPHSVSESPGKTVTISCTRSSGSIASNYVQWYQQRPGSSPTTVIYEDNQRPSGVPDRFSGSIDSSSNSASLTISGLKTEDEADYYCQSYDSSNVVFGGGTKLTVLG
modifications: inserted N-linked glycosylation site (position shown only in a drawing)
B3: F5111 M4 glycovariant (N-glycosylation site inserted in the light chain) (antibody, human IgG1, lambda, V domains shown)
VH: B2 VH with N86S
VL: B2 VL with D69N
modifications: inserted N-linked glycosylation site (position shown only in a drawing)
B4: F5111 M1 glycovariant (N-glycosylation site inserted in the heavy chain) (antibody, human IgG1, lambda)
heavy: not shown
light: B1 light
modifications: inserted N-linked glycosylation site (position shown only in a drawing)
B5: F5111 M5 glycovariant (N-glycosylation site inserted in the light chain) (antibody, human IgG1, lambda, V domains shown)
VH: B2 VH with N86S
VL: B2 VL with S70N
modifications: inserted N-linked glycosylation site (position shown only in a drawing)
B6: F5111 M3 glycovariant (N-glycosylation site inserted in the heavy chain) (antibody, human IgG1, lambda)
heavy: not shown
light: B1 light
modifications: inserted N-linked glycosylation site (position shown only in a drawing)
B7: 602 antibody (wild type anti-human IL-2 antibody) (antibody, mouse IgG2a, kappa)
heavy: DEVQLQESGPGLVAPSQSLSITCTVSGFSLTNYDISWIRQPPGKGLEWLGVIWTGGGTNYNSGFMSRLSITKDNSKSQVFLKMNSLQTDDTAIYYCVRQGRTPYWGQGTLVTVSAAKTTAPSVYPLAPVCGDTTGSSVTLGCLVKGYFPEPVTLTWNSGSLSSGVHTFPAVLQSDLYTLSSSVTVTSSTWPSQSITCNVAHPASSTKVDKKIEPRGPTIKPCPPCKCPAPNLLGGPSVFIFPPKIKDVLMISLSPIVTCVVVDVSEDDPDVQISWFVNNVEVHTAQTQTHREDYNSTLRVVSALPIQHQDWMSGKEFKCKVNNKDLPAPIERTISKPKGSVRAPQVYVLPPPEEEMTKKQVTLTCMVTDFMPEDIYVEWTNNGKTELNYKNTEPVLDSDGSYFMYSKLRVEKKNWVERNSYSCSVVHEGLHNHHTTKSFSRTPGK
light: AGSDIQVTQSPSSLSVSLGDRVTITCKASKDIYNRLAWYQQKPGNAPRLLISGATSLETGVPSRFSGSGSGKDYTLTITSLQTEDVATYYCQQFWGTPYTFGGGTKLEIKRADAAPTVSIFPPSSEQLTSGGASVVCFLNNFYPKDINVKWKIDGSERQNGVLNSWTDQDSKDSTYSMSSTLTLTKDEYERHNSYTCEATHKTSTSPIVKSFNRNEC
B8: 602 M1 glycovariant (N-glycosylation site inserted in the heavy chain) (antibody, mouse IgG2a, kappa)
heavy: B7 heavy with Q107N
light: B7 light
modifications: inserted N-linked glycosylation site (position shown only in a drawing)
notes: One amino acid changed in the heavy chain to create a new N-glycosylation site; also called Mutant 1
B9: 602 M8 glycovariant (N-glycosylation site inserted in the light chain) (antibody, mouse IgG2a, kappa)
heavy: B7 heavy
light: B7 light with D4N, Q6T
modifications: inserted N-linked glycosylation site (position shown only in a drawing)
notes: Two amino acids changed in the light chain to create a new N-glycosylation site; also called Mutant 8

biological target: T1, human Interleukin-2 (human, UniProt P60568 21-153, biotinylated (site not stated) when immobilised on streptavidin biosensors; soluble in the competition studies); assay: cell-based or functional assay
T1 sequence (P60568 21-153 limits assumed): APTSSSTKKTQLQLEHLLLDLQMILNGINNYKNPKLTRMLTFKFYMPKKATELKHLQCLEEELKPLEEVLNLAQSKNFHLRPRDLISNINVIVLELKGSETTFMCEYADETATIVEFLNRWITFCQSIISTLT

Q: What does the source list for B1?
A: YT+ EC50 (STAT5 phosphorylation, IL-2Rα+ YT-1 cells): 0.15 nM; YT- EC50 (STAT5 phosphorylation, IL-2Rα- YT-1 cells): 0.66 nM

Q: How did the “YT+ EC50 (STAT5 phosphorylation, IL-2Rα+ YT-1 cells)” value (“YT+ EC50” below) turn out when B2 was run?
A: 0.098 nM

Q: What about the “YT- EC50 (STAT5 phosphorylation, IL-2Rα- YT-1 cells)” value (“YT- EC50” for short) of the same binder?
A: 0.44 nM

Q: B3 was tested. Which “YT+ EC50” value did it give?
A: 0.17 nM

Q: What about the “YT- EC50” value of the same binder?
A: 0.52 nM

Q: For B4, which “YT+ EC50” value is on record?
A: 0.043 nM

Q: And the “YT- EC50” value?
A: 0.89 nM

Q: How did the “YT+ EC50” value turn out when B5 was run?
A: 0.039 nM

Q: And the “YT- EC50” value?
A: 0.79 nM

Q: Which results are given for B6?
A: YT+ EC50 (STAT5 phosphorylation, IL-2Rα+ YT-1 cells): 0.089 nM; YT- EC50 (STAT5 phosphorylation, IL-2Rα- YT-1 cells): 0.39 nM

biological target: T1, human Interleukin-2; assay: BLI, equilibrium KD from titration curve, immobilised human IL-2, soluble antibody

Q: With B2 as the binder, how does the Kd read?
A: 9.6 nM

Q: Which Kd does the source give for B3 here?
A: 9.7 nM

Q: B4 was tested. Which Kd did it give?
A: 7.8 nM

Q: How did the Kd turn out when B5 was run?
A: 9.8 nM

Q: How did the Kd turn out when B6 was run?
A: 8.3 nM

biological target: T1, human Interleukin-2; assay: BLI (Octet), biotinylated human IL-2 on streptavidin sensors, soluble antibody, 1:1 Langmuir fit
Description: (§1) Biolayer interferometry binding studies: Binding studies were performed via bio-layer interferometry using an OctetRED96® biolayer interferometry instrument (Sartorius). […] Once baseline measurements were collected in PBSA, binding kinetics were measured by submerging the biosensors in wells containing serial dilutions of the appropriate analytes for 300 s (association) followed by submerging the biosensor in wells containing only PBSA for 500 s (dissociation). […] An irrelevant protein (the monoclonal antibody ipilimumab) was used as a control for nonspecific binding. Tips were regenerated in 0.1 M glycine pH 2.7. Data was processed and kinetic parameters were calculated using the Octet® Data Analysis software version 7.1 (Sartorius), assuming a 1:1 Langmuir binding model. Equilibrium binding was determined by total response measured after 295 s. Equilibrium titration curve fitting and KD value determination was implemented using GraphPad Prism, assuming all binding interactions to be first order.

Q: Which koff does the source give for B7 here?
A: 0.0019 s⁻¹

Q: And the kon?
A: 780000 M⁻¹ s⁻¹

Q: With B8 as the binder, how does the koff read?
A: 0.002 s⁻¹

Q: What about the kon of the same binder?
A: 790000 M⁻¹ s⁻¹

Q: Which results are given for B9?
A: koff: 0.0018 s⁻¹; kon: 1e+06 M⁻¹ s⁻¹

biological target: T1, human Interleukin-2; assay: BLI (Octet), biotinylated human IL-2 immobilised on streptavidin tip, soluble antibody titrated, normalized equilibrium response
Description: Error bars represent s.d.
as §1, with “model.” for “model. Equilibrium binding was determined by total response measured after 295 s. Equilibrium titration curve fitting and KD value determination was implemented using GraphPad Prism, assuming all binding interactions to be first order.”

Q: With B7 as the binder, how does the “EC50 (read off the curve)” value read?
A: ~3 nM

biological target: T1, human Interleukin-2; assay: BLI, kinetic KD, immobilised human IL-2, soluble antibody
Description: as §1

Q: How did the Kd turn out when B7 was run?
A: 2.5 nM

Q: For B8, which Kd is on record?
A: 2.5 nM

Q: Which Kd does the source give for B9 here?
A: 1.8 nM

biological target: T1, human Interleukin-2; assay: BLI, equilibrium KD from titration curve, immobilised human IL-2, soluble antibody; remark: another data set of the same source
Description: as §1

Q: How did the Kd turn out when B7 was run?
A: 3.2 nM

Q: Which Kd does the source give for B8 here?
A: 3.2 nM

Q: Which Kd does the source give for B9 here?
A: 2.3 nM

biological target: T1, human Interleukin-2; assay: BLI (Octet), immobilised human IL-2, soluble antibody, 1:1 Langmuir fit

Q: How did the koff turn out when B1 was run?
A: 0.00022 s⁻¹

Q: What about the kon of the same binder?
A: 360000 M⁻¹ s⁻¹

Q: B2 was tested. Which koff did it give?
A: 0.00021 s⁻¹

Q: What about the kon of the same binder?
A: 270000 M⁻¹ s⁻¹

Q: With B3 as the binder, how does the koff read?
A: 0.00014 s⁻¹

Q: What about the kon of the same binder?
A: 270000 M⁻¹ s⁻¹

Q: With B4 as the binder, how does the koff read?
A: 0.00038 s⁻¹

Q: What about the kon of the same binder?
A: 330000 M⁻¹ s⁻¹

Q: B5 was tested. Which koff did it give?
A: 0.00023 s⁻¹

Q: What about the kon of the same binder?
A: 280000 M⁻¹ s⁻¹

Q: What does the source list for B6?
A: koff: 0.00017 s⁻¹; kon: 310000 M⁻¹ s⁻¹

biological target: T1, human Interleukin-2; assay: BLI, equilibrium KD from titration curve, immobilised human IL-2, soluble antibody; Equilibrium KD, not kinetic KD

Q: For B1, which Kd is on record?
A: 6.5 nM

biological target: T1, human Interleukin-2; assay: BLI, kinetic KD, immobilised human IL-2, soluble antibody; remark: another data set of the same source

Q: Which Kd does the source give for B1 here?
A: 0.63 nM

Q: How did the Kd turn out when B2 was run?
A: 0.76 nM

Q: Which Kd does the source give for B3 here?
A: 0.5 nM

Q: With B4 as the binder, how does the Kd read?
A: 1.1 nM

Q: For B5, which Kd is on record?
A: 0.82 nM

Q: B6 was tested. Which Kd did it give?
A: 0.55 nM

biological target: T1, human Interleukin-2; assay: cell-based or functional assay; remark: another data set of the same source

Q: Which results are given for B7?
A: YT+ EC50 (STAT5 phosphorylation, IL-2Rα+ YT-1 cells): 0.18 nM; YT- EC50 (STAT5 phosphorylation, IL-2Rα- YT-1 cells): 5.2 nM

Q: Which “YT+ EC50” value does the source give for B8 here?
A: 0.16 nM

Q: What about the “YT- EC50” value of the same binder?
A: 6 nM

Q: How did the “YT+ EC50” value turn out when B9 was run?
A: 0.17 nM

Q: And the “YT- EC50” value?
A: 4.5 nM
